The values that follow come from patent US20100143438A1, “BIOMOLECULES” (University of Strathclyde, priority 2006, published 2010).

The test system of the experiment is Fmoc-FRGD-PEGA surface tethered peptide (Fmoc-F↓RGD bond). In words: Enzymatic hydrolysis of PEGA surface tethered peptides analysed by HPLC. As to conditions: for Fmoc-F-OH (%) / Fmoc-FR-OH (%): 37° C., 2 hours in enzyme solution, 100% = 4.08 nmol maximum Fmoc-peptide hydrolysed, n=9; for cleavage and selectivity for Fmoc-F↓RGD versus Fmoc-FR↓GD: HPLC. The experiment is classed as biochemical. The procedure:
Three proteolytic enzymes, chymotrypsin, thermolysin and proteinase K, that are known to cleave peptide bonds involving F amino acids in the P1 position were tested for their ability to selectively hydrolyse Fmoc-F↓RGD bond^15. […] Surfaces were incubated at 37° C. for 2 hours in enzyme solution (concentrations and activities are shown in Table 1) in phosphate buffer and the cleaved products were analysed by HPLC.
Surfaces were rinsed in a known volume (at least 4 ml) of a 50:50 mixture of acetonitrile (ACN) and water. The rinsing solution was kept and added to the enzyme solution that the surface was in. 1 ml of this solution was placed into an HPLC autosampler vial. The HPLC machine (manufactured by Dionex; California, USA) consisted of a P.680 HPLC pump joined to an ASI-100 Automated Sample Injector with a Dionex UVD17OU detector. The column was an EC 250/4.6 Nucleosil 100-5 C18, with an internal diameter of 4.6 mm and a column length of 250 mm containing particles of 5 μm in diameter. 100 μl was injected into the HPLC column at the start of each run and a buffer gradient run through the column, buffer A was 99.9% water and 0.1% TFA, buffer B was 99.9% ACN and 0.1% TFA. For quantification, three samples of each surface were produced and repeated three times.

B1: Thermolysin: proteolytic enzyme (metalloprotease) (protein, UniProt P00800 233-548, looked up)
Thermolysin: ITGTSTVGVGRGVLGDQKNINTTYSTYYYLQDNTRGNGIFTYDAKYRTTLPGSLWADADNQFFASYDAPAVDAHYYAGVTYDYYKNVHNRLSYDGNNAAIRSSVHYSQGYNNAFWNGSQMVYGDGDGQTFIPLSGGIDVVAHELTHAVTDYTAGLIYQNESGAINEAISDIFGTLVEFYANKNPDWEIGEDVYTPGISGDSLRSMSDPAKYGDPDHYSKRYTGTQDNGGVHINSGIINKAAYLISQGGTHYGVSVVGIGRDKLGKIFYRALTQYLTPTSNFSQLRAAAVQSATDLYGSTSQEVASVKQAFDAVGVK
Take B1: the “Fmoc-F-OH (%)” value was 40 ± 2.4%; the “Fmoc-FR-OH (%)” value is on record as 27 ± 3.5%; the “cleavage and selectivity for Fmoc-F↓RGD versus Fmoc-FR↓GD” value is listed as “poor selectivity”.

B2: Proteinase K: proteolytic enzyme cleaving peptide bonds with F in P1 position (protein, UniProt P06873 106-384, looked up)
Proteinase K: AAQTNAPWGLARISSTSPGTSTYYYDESAGQGSCVYVIDTGIEASHPEFEGRAQMVKTYYYSSRDGNGHGTHCAGTVGSRTYGVAKKTQLFGVKVLDDNGSGQYSTIIAGMDFVASDKNNRNCPKGVVASLSLGGGYSSSVNSAAARLQSSGVMVAVAAGNNNADARNYSPASEPSVCTVGASDRYDRRSSFSNYGSVLDIFGPGTSILSTWIGGSTRSISGTSMATPHVAGLAAYLMTLGKTTAASACRYIADTANKGDLSNIPFGTVNLLAYNNYQA
As to B2, the “Fmoc-F-OH (%)” value stood at 60 ± 3.0%; the “Fmoc-FR-OH (%)” value is 40 ± 8.0%; the “cleavage and selectivity for Fmoc-F↓RGD versus Fmoc-FR↓GD” value is recorded as “highest cleavage but poor selectivity”. Also, the “maximum amount of Fmoc-peptide cleaved from the surface” value (determined by HPLC) is recorded as 4.08 nmol.
